Reference: publication PMC2894972, “Protein-Protein Interaction Antagonists as Novel Inhibitors of Non-Canonical Polyubiquitylation” (PLoS ONE, 2010)

Target: T1, Ubc13 (human, UniProt P61088 1-152)
T1 construct: Ubc13, ubiquitin-conjugating enzyme (E2), human; also called purified Ubc13; source: recombinant, purified
T1 sequence (looked up): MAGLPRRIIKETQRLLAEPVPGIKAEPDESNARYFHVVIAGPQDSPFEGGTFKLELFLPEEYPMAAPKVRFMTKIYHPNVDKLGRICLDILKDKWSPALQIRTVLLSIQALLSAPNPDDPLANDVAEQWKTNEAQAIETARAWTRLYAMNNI
Experiment: SPR; Uev1 immobilised on a Biacore CM5 chip (1179,1 RU); Ubc13 in the mobile phase; 10 mM HEPES, 0.15 M NaCl, pH 7.4; Biacore T100
Details: both partners purified

B1: Uev1 (natural protein)
chain: not shown
notes: Uev1, ubiquitin-conjugating enzyme variant 1, human; also called recombinant Uev1; source: recombinant, purified
Kd: 1 nM
